{"source": "paper PMC12578645", "about": "(Nature Microbiology, 2025)", "binders": {"B1": {"name": "gB-Ecto.H516P.L531E (HSV-1 glycoprotein B ectodomain stabilized in the prefusion conformation) (domain or fragment)", "chain": "not shown", "modifications": "N-linked glycans (densities seen at 141, 398, 430 and 674)", "notes": "also called H516P + L531E ectodomain; prefusion gB"}, "B2": {"name": "WS.HSV-1.24 Fab (Fab, V domains shown)", "VH": "QVQLKESGPGLVAPSQSLSITCTVSGFSLTTYGVTWVRQPPGKGLEWLGVIWGDGSTNYHSDLISRLSITKDNSKSQVFLKLSSLQADDTATYYCVSYYGYFDHWGQGTTLTVSS", "VL": "DIQMTQSPSSLSASLGERVSLTCRASQDIGSSLNWLQQKPDGTIKRLIYATSSLDSGVPKRFSGSRSGSDYSLTISSLESEDFVDYYCLQYASSPPTFGGGTKLEIK", "notes": "also called WS.HSV-24; source: IgG expressed in Expi293F and purified; reduced and alkylated, digested with immobilized papain; Fab purified (protein G negative selection, Superdex 75 gel filtration)"}, "B3": {"name": "WS.HSV-1.24 IgG (antibody, V domains shown)", "VH": "B2 VH", "VL": "B2 VL", "notes": "also called WS.HSV-24; source: Expi293F, purified (variable genes cloned into pVRC8400 with species-specific constant regions)"}}, "key": {"cryo-EM structure": {"target": "the molecule itself", "test": "cryo-EM structure"}, "gB-Ecto.H516P.L531E": {"target": "T1, gB-Ecto.H516P.L531E (Human alphaherpesvirus 1, strain KOS, H516P | L531E)", "T1 construct": "also called gB-Ecto.516P.531E; prefusion gB; not shown: 8xHis-Tag, C-terminal, kept", "test": "SPR", "details": "both partners purified"}, "gB-Ecto.H516P.L531E.DS": {"target": "T2, gB-Ecto.H516P.L531E.DS (Human alphaherpesvirus 1, strain KOS, H516P | L531E | A240C | E607C)", "T2 construct": "also called gB-Ecto.H516P.L531E.A240C+E607C (DS); gB-Ecto.516P.531E.DS; not shown: 8xHis-Tag, C-terminal, kept", "test": "SPR", "details": "both partners purified"}, "[1]": {"target": "T3, HSV-1 gB on infectious HSV-1 virions (Human alphaherpesvirus 1 (HSV-1), …, UniProt P06437)", "T3 construct": "also called authentic live virus; source: HSV-1 MacIntrye (VR-539; ATCC) propagated in Vero cells, virions purified by ultracentrifugation with a 25% sucrose cushion", "test": "ELISA; virion-binding ELISA: plates coated with purified authentic live HSV-1 at 50,000 infectious particles per well; monoclonal antibodies in fivefold dilutions from 20 µg/ml", "details": "one partner purified"}}}
{"binder": "B1", "values": [{"measurement": "stoichiometry N", "setting": "cryo-EM structure", "value": 3}]}
{"binder": "B2", "values": [{"measurement": "Kd", "setting": "gB-Ecto.H516P.L531E", "value": 3.2, "unit": "nM"}, {"measurement": "Kd", "setting": "gB-Ecto.H516P.L531E.DS", "value": 1.86, "unit": "nM"}]}
{"binder": "B3", "values": [{"measurement": "binding result", "setting": "[1]", "value": "binds"}]}
